Measured values taken from the RNAGym collection of RNA variant scans (doi:10.1073/pnas.2313332121).

B1: TPR t1 (parent)
chain: GACCAAUCUGCCCUCAGAGCUCGAGAACAUCUUCGGAUGCAGAGGAGGCAGGCUUCGGUGGCGCGAUAGCGCCAACGUCCUCAACCUCCAAUGCAUCCCACCACAUGAUGAUGCCUGAAGAGCCUUGGUUUUUUG

Variants of: B1
Test: polymerase ribozyme fitness, log enrichment relative to wild type (log ratio); higher = more active; in vitro selection for triplet polymerase activity
Summary of the method: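 Frozen incubation at −7 °C formed the core of a single, triplicate in vitro selection round applied to PCR-built, transcribed mutant libraries of each subunit of a heterodimeric triplet polymerase ribozyme. Extended constructs were gel-excised, captured with streptavidin beads and amplified by RT-PCR, and input and output libraries were Illumina-sequenced with a filter of ≥10 input reads and ≥1 read per output. Fitness is the logarithm of genotype enrichment relative to wild-type enrichment, with inverse-variance-weighted replicate averaging, and the logarithm is base 2.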
For GACCAAUCUGCCCUCAGAGCUCGAGAACAUCUUCGGAUGCAGAGGAGGAACGCUUCGGUGGCGCGAUAGCGCCAACGUCCUCAACCUCCAAUGCAUCCCCCCACAUGAUGAUGCCUGAAGAGCCUUGGUUUAUUG [C49A G51C A100C U132A], the “polymerase ribozyme fitness (log ratio)” value was -5.52. For GACCAAUCUGCCCUCAGAGCUCGAGAACAUCUUCGGAUGCAGAGGAGGAAGGCUUCGGUGGCUCCAUAGCGCCAACGUCCUCAACCUCCAAUGCAUCCCACCACAUGAUGAUGCCUGAACAGCCUUGGUUUUUUG [C49A G63U G65C G120C], the “polymerase ribozyme fitness (log ratio)” value was -6.43. For GACCAAUCUGCCCUCAGAGCUCGAGAACAUCUUCGGAUGCAGAGGAGGAAGGAUUCGGUGGCGCGAUAGCGCCAACGUCCUCAACCUCCAAUGCAUCCCACCACAUGAUGAUGCCCGAAGAGCCUUGGUUUUUUG [C49A C53A U116C], the “polymerase ribozyme fitness (log ratio)” value was -1.16. In the case of GACCAAUCUGCCCUCAGAGCUCGAGAACAUCUUCGGAUGCAGAGGAGGAAGGCUUCGGUGGCGCGAUAGCGCCAACGUCCUCAACCUCCAAUGCAUCCCACAACAUGAUGAUGCCUGAAGUUCCUUGGUUUUCUG [C49A C102A A121U G122U U133C], the “polymerase ribozyme fitness (log ratio)” value is reported as -0.655. With GACCAAUCUGCCCUCAGAGCUCGAGAACAUCUUCGGAUGCAGAGGAGGAAGGCUUCGGUGGCGCGAUAGCGGCAACGUCCUCAACCUCCAAUGCAUCCCACCACAUGAUGAUGCCUGAAGAGCCUUGGUUUUUUG [C49A C72G] the “polymerase ribozyme fitness (log ratio)” value was -0.887. For GACCAAUCUGCCCUCAGAGCUCGAGAACAUCUUCGGAUGCAGAGGAGGAAGGAUUCGGUGGCGCGAUAGCGCCAACGUCCUCAACAUCCAAUGCAUCCCACCACAUGAUGAGGCCUGAAGAGCCUUGAUUUUUUG [C49A C53A C86A U112G G128A], the “polymerase ribozyme fitness (log ratio)” value was -3.85. In the case of GACCAAUCUGCCCUCAGAGCUCGAGAACAUCUUCGGAUGCAGAGGAGGAAGGCUUCGGUGGCGCGAUAGCUCCAACGUCCUCAACCUCCAAUGCAUCCCACCACAUGAUGAUGCCUGAAGAGCCUUGGUUUUUUG [C49A G71U], the “polymerase ribozyme fitness (log ratio)” value is reported as -0.754. In the case of GACCAAUCUGCCCUCAGAGCUCGAGAACAUCUUCGGAUGCAGAGGAGGAAGGCUUCGGUCGCGCGAUAGCGCCAACGUCCUCAACCUCCAAUGCAUCCCACCACAUGAUGAUGCCUGAAGAGCCUUAGUUAUUUG [C49A G60C G127A U131A], the “polymerase ribozyme fitness (log ratio)” value is reported as -3.76. For GACCAAUCUGCCCUCAGAGCUCGAGAACAUCUUCGGAUGCAGAGGAGGAAGGCUUCGGUGGCGCGAUAGCGCCAACGUCCUCAACCUCCACUGCAUGCUACCACAUGAUGAUACCUGAAGAGCCUUGGUUUUUUG [C49A A91C C97G C99U G113A], the “polymerase ribozyme fitness (log ratio)” value was -7.59. With GACCAAUCUGCCCUCAGAGCUCGAGAACAUCUUCGGAUGCAGAGGAGGAAGGCUUCGGUGGCGUGAUAGCGCCAACGUCCUCAACCUCCAAUGCAUCCCACCACAUGAUGAUGCCUGAAGAGUCUUGGUUUUUUG [C49A C64U C123U] the “polymerase ribozyme fitness (log ratio)” value was 0.702. In the case of GACCAAUCUGCCCUCAGAGCUCGAGAACAUCUUCGGAUGCAGAGGAGGAAGGCUUCGGUGGCUCGAUAGCGCCAACGUCCUCAACCUCCAAUGCAUCCCACCACAUGAUGAUGCCUAAAGAGCCUUGGUUUUUUG [C49A G63U G117A], the “polymerase ribozyme fitness (log ratio)” value is reported as -3.12. For GACCAAUCUGCCCUCAGAGCUCGAGAACAUCUUCGGAUGCAGAGGAGGAAGGCUUCGGUGGCGCGAUAGCGCCAACGUCCUCAACCUCCAAUGCAUCCCACCACAUGAUGAUGCCUGAAGAGCUUUGGUUUUUUG [C49A C124U], the “polymerase ribozyme fitness (log ratio)” value was 0.812. With GACCAAUCUGCCCUCAGAGCUCGAGAACAUCUUCGGAUGCAGAGGAGGAAGGCUUAGGUGGCACGAUAGCGCCAUCGUCCUCCACCUCCAAUGCAUCCCACCACAUGAUGAUUCCUGAAGAGGCUUAGUUUUUUG [C49A C56A G63A A75U A83C G113U C123G G127A] the “polymerase ribozyme fitness (log ratio)” value was -5.69. In the case of GACCAAUCUGCCCUCAGAGCUCGAGAACAUCUUCGGAUGCAGAGGAGGAAGGCUUCGGUGGCGCGAUAGCGCCAACGUCCUCAACCUCCAAUGCAUCCCACCCCAUGAUGAUGCCUGAAGAGCCUUGGUUUUUUG [C49A A103C], the “polymerase ribozyme fitness (log ratio)” value is reported as -5.44. For GACCAAUCUGCCCUCAGAGCUCGAGAACAUCUUCGGAUGCAGAGGAGGAAGGCUUCGGUGGCGCGAUAGCGCCAACGUCCUCAAACUCCAAUCCAUCCCACCACAAGAUGAUGCCUGAAGAGCCUUGGUUUUUUG [C49A C85A G93C U106A], the “polymerase ribozyme fitness (log ratio)” value was -1.01. For GACCAAUCUGCCCUCAGAGCUCGAGAACAUCUUCGGAUGCAGAGGAGGAAGGCUUCGGUGGCGCGAUAGCGCCAACGUCCUCAACCUCCAAUCCAUCCCACCACAUGAUGAAGCCUGAAGAGCCUUGGUUUUUUG [C49A G93C U112A], the “polymerase ribozyme fitness (log ratio)” value was 0.173. For GACCAAUCUGCCCUCAGAGCUCGAGAACAUCUUCGGAUGCAGAGGAGGAAGGCUUCGGUGGCGCGAUAGCGCCAACGUCCUCAACCUCCAAUGCAUCCCAGCACAUGAUGAUGCAUGAAAAGCCUUGGUUUUUUG [C49A C101G C115A G120A], the “polymerase ribozyme fitness (log ratio)” value was -2.2. With GACCAAUCUGCCCUCAGAGCUCGAGAACAUCUUCGGAUGCAGAGGAGGAAGGCUUAGGUGGCGCGAUAGCGCCAACGUCCUCAACCUCCAAUGCAUCCCACCACAUGAUGAUGCCUGAAGAGCCUUGGUCUUUUG [C49A C56A U130C] the “polymerase ribozyme fitness (log ratio)” value was -0.746. With GACCAAUCUGCCCUCAGAGCUCGAGAACAUCUUCGGAUGCAGAGGAGGAAGGCUUCGGUGGCGCGAUAGCGCCAACGUCCUCAACCUCCAGUGCAUCCCACCACAUGAUGAUGCCUGAAGAGCCUUGGUUUUUUG [C49A A91G] the “polymerase ribozyme fitness (log ratio)” value was -1.63. With GACCAAUCUGCCCUCAGAGCUCGAGAACAUCUUCGGAUGCAGAGGAGGAAGGCUUCGGUGGCGCGAUAGCGCUAACGUCCUCAACCUUCAAUGUAUCCCACCACAUGAUGAUGCCUGAAGAGUCUUGGUUUGUUU [C49A C73U C88U C94U C123U U132G G135U] the “polymerase ribozyme fitness (log ratio)” value was -1.74. In the case of GACCAAUCUGCCCUCAGAGCUCGAGAACAUCUUCGGAUGCAGAGGAGUCAGGCUUCGGUGGCGCGAUAGCGCCAACGUCCUCAACCUCCAAUGCAUCCCACCACAUGACGAUGCCUGAAGAGCCUUGGUUUUUUG [G48U U109C], the “polymerase ribozyme fitness (log ratio)” value is reported as -4.94.
